In the supplement of paper PMC12042874 one finds amyloid nucleation score data, which are given here for 105 substances.

± gives the uncertainty stated by the source.

This series in a line: amyloid nucleation score (Sup35N fusion, yeast selection) (log enrichment); library NNK1; higher = more nucleation; inactive = no reads after selection. An outline of the steps:
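The nucleation score is the DiMSum log enrichment of output over input reads, centred on the mode score of non-aggregating sequences. Only sequences with 100 or more input reads were scored, using Illumina sequencing of input and output plasmid inserts. Psi-negative yeast expressing Sup35N fused to peptides of 20 random codons were induced 24 hours with 100 μM copper sulfate and grown 7 days at 30°C on medium lacking adenine and uracil.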
Substance YMNIVDVLAWGDRWVLLVWK had an amyloid nucleation score of 0.425 ± 0.48.

For the substance FNFCHE, the amyloid nucleation score was -0.392 ± 0.6.

Take SMRWVDL: the amyloid nucleation score came to 1.19 ± 0.97.

With VVGYRRTMGLVEFSLASVSN, the amyloid nucleation score was -0.806 ± 0.76.

In the case of CVFMRATLQK, the amyloid nucleation score stood at 3.25 ± 0.15.

Substance IKLHSEGRIYHINFACRSVC came in with an amyloid nucleation score of 0.199 ± 0.24.

Regarding TLSISTMIAAVGTLSVCGDM, the amyloid nucleation score was determined as 0.768 ± 0.16.

In turn, MSLDGD registered an amyloid nucleation score of 0.868 ± 0.29.

For ECVNLLR, the amyloid nucleation score came to 0.471 ± 0.25.

GKSMYCYK yielded an amyloid nucleation score of -0.96 ± 2.7.

Consider FKSYPVGIRRHCHGTSMLMG, for which the amyloid nucleation score was found to be 0.059 ± 0.31.

As for ILPRNFVSTNVANRFIEGSS, the amyloid nucleation score was 0.932 ± 0.66.

For SMVNNWIMDCLWAILWVIDI, the amyloid nucleation score result is “inactive”.

Consider SFFFSRVGSLFCLRFYDVFG, for which the amyloid nucleation score was -0.858 ± 1.3.

As for SVWVENLEFIWRYLPSSVYP, the amyloid nucleation score came out at 0.076 ± 0.3.

Substance GVRYQALFLSAVL showed an amyloid nucleation score of 0.09 ± 0.21.

YPSIGLRVLLNYCDPTDTGA came in with an amyloid nucleation score of 0.255 ± 1.2.

Regarding LYVEYKRAMCVMGVSLWVN, the amyloid nucleation score is 0.224 ± 0.19.

For VRYYMALMRWDDNVNSMCMG, the amyloid nucleation score entry was “inactive”.

In turn, LLLYPRMGDRGTYYGMSGIR registered an amyloid nucleation score of -1.01 ± 2.7.

Regarding LKDCSCVERQD, the amyloid nucleation score was -0.072 ± 0.38.

As for HSHRYNILQASWKA, the amyloid nucleation score is 0.17 ± 0.38.

The substance QTWLTLDQFVLTFGHKDNLG had an amyloid nucleation score of 0.853 ± 0.51.

FLSRCGWAYVMV: the amyloid nucleation score was -0.493 ± 0.26.

In turn, QGSCCD yielded an amyloid nucleation score of -0.815 ± 0.86.

For GVHRWVRSARLEAVHFGAGW, the amyloid nucleation score turned out to be 1.45 ± 0.84.

As to CMSRSYYYTSPKDPKEFNC, the amyloid nucleation score turned out to be 0.56 ± 0.33.

Substance NEWVCLS yielded an amyloid nucleation score of -0.179 ± 0.36.

Take SGLLVITFVNEFLYKNVYPL: the amyloid nucleation score was determined as 1.95 ± 0.25.

In the case of GGVISESTGYLRLIHRRWDG, the amyloid nucleation score is -0.751 ± 1.7.

QGRGMDNVIYVEVRMRDCRR registered an amyloid nucleation score of 2.04 ± 0.24.

Substance GSTYR came in with an amyloid nucleation score of -0.482 ± 0.51.

In turn, ALLHVNLIVGNYTSGG showed an amyloid nucleation score of 3.28 ± 0.13.

For the substance ASSLDLFNWASVWFFNYIGA, the amyloid nucleation score is -0.887 ± 0.86.

In turn, LRVQWRQSTFN registered an amyloid nucleation score of 0.865 ± 0.48.

Substance VDGRDKSFQSFYCKK came in with an amyloid nucleation score of 0.236 ± 0.56.

On to VVTWVYASSVVLSSLPREGA, for which the amyloid nucleation score was -0.115 ± 0.26.

The substance NCVTELYDLRGILVRNLCSG had an amyloid nucleation score of -0.044 ± 0.21.

YSLSNVEGYYTYYYRT: the amyloid nucleation score was -0.071 ± 0.28.

Consider SVDVHYAGRSC, for which the amyloid nucleation score amounted to 0.552 ± 0.36.

As to SSQVIVCDVYSQVTRFSFCE, the amyloid nucleation score stood at 0.557 ± 0.29.

Consider AWLNRSYRMLHPMWGVCMDM, for which the amyloid nucleation score was found to be 1.26 ± 0.85.

For the substance FNIAALSEYCGPLKSNAHW, the amyloid nucleation score was -0.27 ± 0.64.

As to FGLIVQTIMFRWHQKGSNFE, the amyloid nucleation score was -1.05 ± 2.7.

Regarding YVEFVFNIYSARFEWLLI, the amyloid nucleation score is -0.463 ± 0.75.

Substance FGLIGTPCERMVSGLEV returned an amyloid nucleation score of -0.806 ± 0.88.

GTLVLYFCGVC gave an amyloid nucleation score of 6.62 ± 0.059.

Turning to CTSDHSSFAKFLLLTCCLLL, the amyloid nucleation score was 0.841 ± 0.92.

ALKLARG: the amyloid nucleation score is -0.019 ± 1.2.

On to EDSLPLDMEVNLGRIVEPKM, for which the amyloid nucleation score is 1.14 ± 0.59.

YYNFLLIIFNCCKVMS displayed an amyloid nucleation score of 3.5 ± 0.11.

The substance LNDRYYVIM came in with an amyloid nucleation score of 0.233 ± 0.93.

With TPLYDIWDVSVDLPLPCIFS, the amyloid nucleation score entry is “inactive”.

MSYMCLNRYILVGYCWVQTT came in with an amyloid nucleation score of 0.312 ± 0.66.

The substance FKMSWSTPARYNNGLTRLIF had an amyloid nucleation score of -0.379 ± 0.63.

As to EGMAARSWDCMYVWG, the amyloid nucleation score worked out at 0.35 ± 0.42.

For RLIENFGPHYRSSPVFDVVV, the amyloid nucleation score amounted to 1.33 ± 0.79.

In turn, PIHDLRKLIYVTPEFYWGFY showed an amyloid nucleation score of 0.561 ± 0.48.

HSGTVVYNMEMKKINSCYLL had an amyloid nucleation score of 2.58 ± 0.1.

In the case of CNYWRNRRWF, the amyloid nucleation score turned out to be 1.48 ± 0.33.

PPRYLMRDLTHWSPYR had an amyloid nucleation score of 1.34 ± 0.7.

As for VSIRFSCRRIYNFLVEFPLG, the amyloid nucleation score was -0.102 ± 0.19.

The substance CSLTCVSWHMGSF came in with an amyloid nucleation score of 2.15 ± 0.32.

In turn, YKCVYFGMETAVGNTAQERP came in with an amyloid nucleation score of 0.861 ± 0.77.

The substance RCSGYRFRFTVRRTSLCFVK showed an amyloid nucleation score of -0.447 ± 1.2.

DQRRGFSMETSYTD gave an amyloid nucleation score of 1.42 ± 0.71.

SLTTHSAGHPLYIHVFNVLV came in with an amyloid nucleation score of 0.147 ± 0.35.

YDTNDGFMTGVQ came in with an amyloid nucleation score of -1.56 ± 1.3.

As to GRATMGRGRCNLFGHKGHGH, the amyloid nucleation score turned out to be 0.046 ± 0.55.

In turn, DYRGYFKSDIYSNFLTFLPG gave an amyloid nucleation score of -0.663 ± 0.22.

ISCCVKLRFGLCKSWNFMNQ displayed an amyloid nucleation score of -1.19 ± 1.4.

Substance RSIPSMEVSVMK registered an amyloid nucleation score of -0.805 ± 0.73.

Regarding SEYMLRSNIVFPRWIS, the amyloid nucleation score came out at 0.35 ± 0.71.

Take VCLVDSSWGW: the amyloid nucleation score amounted to 3.86 ± 0.085.

The substance GIRPNFTVRFGGSWSQRNDR yielded an amyloid nucleation score of 0.749 ± 0.47.

Regarding LDCDSSLGRN, the amyloid nucleation score came out at 0.722 ± 0.39.

With KCTCSVKCSCIFCFIICCVC, the amyloid nucleation score is -1.2 ± 1.7.

With THLLPFAGIGVCDLVRSAMG, the amyloid nucleation score worked out at 0.668 ± 0.93.

In turn, YVGIPQCGDLKRRPLA showed an amyloid nucleation score of 0.116 ± 1.1.

Turning to SIVMYDTNMTFRWSAYGRKN, the amyloid nucleation score amounted to 2.13 ± 0.096.

SWCSCQV registered an amyloid nucleation score of 1.16 ± 0.6.

For the substance GSHSGVFRVIKYQILFEVGM, the amyloid nucleation score result is “inactive”.

CSTRGFGGD displayed an amyloid nucleation score of -0.921 ± 1.1.

With AFSTG, the amyloid nucleation score entry is “inactive”.

Substance AGVLAV yielded an amyloid nucleation score of -0.246 ± 0.46.

ISGYQS displayed an amyloid nucleation score of 0.088 ± 0.64.

In turn, CSSMQFVACLNSAYGSSTAM yielded an amyloid nucleation score of 0.027 ± 0.76.

ITKSRLWHDWLTRRVMTTDC came in with an amyloid nucleation score of -0.241 ± 1.4.

SFLCCRVFLKSRRCRCGFMQ returned an amyloid nucleation score of 6.01 ± 0.046.

Turning to HNRMMMRADVTAVDTRYFTS, the amyloid nucleation score is -1.57 ± 1.3.

In the case of VFGDT, the amyloid nucleation score was 0.149 ± 0.97.

Regarding FGLYFRKISGLSPN, the amyloid nucleation score is -0.211 ± 0.67.

Consider TGLVLVGMSVSCVRYRCSND, for which the amyloid nucleation score came to 0.009 ± 0.39.

As to FGYYFVNGIFLYSSVRYDNM, the amyloid nucleation score turned out to be 3.63 ± 0.076.

SVNVRVTDYKYRGLFACAFG displayed an amyloid nucleation score of 0.529 ± 0.58.

MVCLVVSFGQCASTVFLFHL came in with an amyloid nucleation score of 1.83 ± 0.49.

With KVLILCAT, the amyloid nucleation score worked out at 1.1 ± 0.62.

As to SVENQNIKRYT, the amyloid nucleation score is 1.28 ± 0.33.

Substance LRDNMLSEGMQLYCMARASA returned an amyloid nucleation score of -0.201 ± 0.72.

For the substance VIAILLDGHLKVFTTLGYNR, the amyloid nucleation score is -1.59 ± 1.5.

SGNSSFIVILNKRTFRLCRY registered an amyloid nucleation score of 1.41 ± 0.18.

In turn, RFISVMSLSLLNNNFIEAHV came in with an amyloid nucleation score of 0.55 ± 0.6.

ILYCLNLVIHLCQRYSLILR had an amyloid nucleation score of 1.97 ± 0.56.

FVMFLPIYEF displayed an amyloid nucleation score of -0.35 ± 0.8.

The substance YLCPVRDFNGLYGLVFM yielded an amyloid nucleation score of -0.756 ± 1.7.
